Data reported in US10500249B2, “Compositions and methods for preventing or treating diseases, conditions, or processes characterized by aberrant fibroblast proliferation and extracellular matrix deposition” (MOERAE MATRIX, INC., priority 2014, dated 2019).

What was measured:
Assay in all cases: Kinase Profiling Assay
Type in all cases: biochemical
Conditions in all cases: 100 μM
Flt4 (h) = Flt4 (h) (Homo sapiens, UniProt P35916)
Method in brief: (§1)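 Kinase inhibition by MK2 inhibitory peptides was profiled radiometrically, with substrate phosphorylation from labeled ATP read by scintillation after capture on a charged filter. Values are relative to 100% activity and measured in duplicate.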

Fms (h) = Fms (h) (Homo sapiens, UniProt P07333)
Method in brief: as §1

TAO1 (h) = molecular target: T1, TAO1 (h) (Homo sapiens, UniProt Q7L7X3)
T1 sequence (Q7L7X3 1-1001): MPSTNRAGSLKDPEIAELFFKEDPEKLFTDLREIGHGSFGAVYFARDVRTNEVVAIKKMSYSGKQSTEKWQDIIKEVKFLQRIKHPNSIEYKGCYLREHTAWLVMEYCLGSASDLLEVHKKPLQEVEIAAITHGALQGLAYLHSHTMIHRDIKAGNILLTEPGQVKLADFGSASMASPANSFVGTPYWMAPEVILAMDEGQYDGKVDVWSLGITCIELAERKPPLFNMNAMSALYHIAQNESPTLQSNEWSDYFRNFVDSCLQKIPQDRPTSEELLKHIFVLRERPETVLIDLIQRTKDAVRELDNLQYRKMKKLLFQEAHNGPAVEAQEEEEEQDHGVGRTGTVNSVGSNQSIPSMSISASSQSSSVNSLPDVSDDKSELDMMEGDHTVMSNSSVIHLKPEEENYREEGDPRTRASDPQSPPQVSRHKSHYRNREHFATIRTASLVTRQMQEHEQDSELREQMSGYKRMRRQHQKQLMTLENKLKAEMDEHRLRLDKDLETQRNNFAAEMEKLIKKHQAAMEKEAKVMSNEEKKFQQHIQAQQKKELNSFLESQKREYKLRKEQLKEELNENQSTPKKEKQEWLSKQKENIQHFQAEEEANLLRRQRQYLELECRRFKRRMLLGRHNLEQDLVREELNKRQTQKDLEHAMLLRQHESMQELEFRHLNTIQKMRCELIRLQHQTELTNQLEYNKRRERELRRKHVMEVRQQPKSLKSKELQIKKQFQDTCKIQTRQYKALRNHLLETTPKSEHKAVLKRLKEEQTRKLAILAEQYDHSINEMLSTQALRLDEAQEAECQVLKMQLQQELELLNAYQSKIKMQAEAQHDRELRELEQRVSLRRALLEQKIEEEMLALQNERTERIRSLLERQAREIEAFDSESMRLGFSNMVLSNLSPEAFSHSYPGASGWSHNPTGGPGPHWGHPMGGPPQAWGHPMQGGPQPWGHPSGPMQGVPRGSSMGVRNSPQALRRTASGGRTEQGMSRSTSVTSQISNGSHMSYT
Method in brief: as §1

IGF-1R (h), activated = molecular target: T2, IGF-1R (h), activated (Homo sapiens, UniProt P08069)
T2 construct: purchased Millipore
T2 sequence (P08069 959-1367 limits assumed): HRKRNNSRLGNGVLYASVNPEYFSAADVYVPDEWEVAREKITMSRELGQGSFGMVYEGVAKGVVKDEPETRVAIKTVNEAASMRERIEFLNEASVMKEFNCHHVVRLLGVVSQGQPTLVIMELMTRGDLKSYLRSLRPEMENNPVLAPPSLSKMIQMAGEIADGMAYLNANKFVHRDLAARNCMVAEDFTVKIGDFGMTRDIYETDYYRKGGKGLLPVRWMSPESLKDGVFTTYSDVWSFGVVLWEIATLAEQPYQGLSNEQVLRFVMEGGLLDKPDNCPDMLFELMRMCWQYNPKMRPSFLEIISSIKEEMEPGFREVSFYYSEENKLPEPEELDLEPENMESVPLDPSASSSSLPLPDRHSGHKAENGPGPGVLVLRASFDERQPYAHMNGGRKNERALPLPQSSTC
Method in brief: as §1

EphA5 (h) = EphA5 (h) (Homo sapiens, UniProt P54756)
EphA5 (h), sequence (P54756 25-1037): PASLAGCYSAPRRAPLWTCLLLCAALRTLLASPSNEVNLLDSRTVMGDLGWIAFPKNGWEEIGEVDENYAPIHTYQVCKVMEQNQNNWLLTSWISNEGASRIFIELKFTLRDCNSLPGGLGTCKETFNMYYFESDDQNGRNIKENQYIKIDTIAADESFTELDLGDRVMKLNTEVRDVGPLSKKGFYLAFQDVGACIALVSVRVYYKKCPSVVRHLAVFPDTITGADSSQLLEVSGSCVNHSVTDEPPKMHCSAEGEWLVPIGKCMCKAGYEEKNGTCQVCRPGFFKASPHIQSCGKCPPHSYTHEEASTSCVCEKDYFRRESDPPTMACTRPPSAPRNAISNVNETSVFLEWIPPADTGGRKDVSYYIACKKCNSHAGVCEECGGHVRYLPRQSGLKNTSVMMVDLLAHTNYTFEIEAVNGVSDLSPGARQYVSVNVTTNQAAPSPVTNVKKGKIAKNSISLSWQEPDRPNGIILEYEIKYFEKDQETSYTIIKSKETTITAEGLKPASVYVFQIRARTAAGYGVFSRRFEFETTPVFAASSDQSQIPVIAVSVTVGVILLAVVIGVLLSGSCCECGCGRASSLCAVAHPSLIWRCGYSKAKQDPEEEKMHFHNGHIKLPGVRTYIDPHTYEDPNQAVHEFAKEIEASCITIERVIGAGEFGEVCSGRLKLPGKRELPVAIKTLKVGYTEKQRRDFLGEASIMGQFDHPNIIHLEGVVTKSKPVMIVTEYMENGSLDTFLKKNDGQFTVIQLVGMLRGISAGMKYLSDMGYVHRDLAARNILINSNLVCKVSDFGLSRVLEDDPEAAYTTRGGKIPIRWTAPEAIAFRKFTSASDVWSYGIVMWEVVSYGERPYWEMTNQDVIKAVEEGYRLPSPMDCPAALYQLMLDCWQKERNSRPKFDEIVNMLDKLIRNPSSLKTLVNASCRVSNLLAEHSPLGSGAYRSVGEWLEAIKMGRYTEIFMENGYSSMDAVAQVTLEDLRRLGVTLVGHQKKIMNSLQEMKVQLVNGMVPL
Method in brief: as §1

ARK5 (h) = molecular target: T3, ARK5 (h) (Homo sapiens, UniProt O60285)
T3 sequence (O60285 1-661): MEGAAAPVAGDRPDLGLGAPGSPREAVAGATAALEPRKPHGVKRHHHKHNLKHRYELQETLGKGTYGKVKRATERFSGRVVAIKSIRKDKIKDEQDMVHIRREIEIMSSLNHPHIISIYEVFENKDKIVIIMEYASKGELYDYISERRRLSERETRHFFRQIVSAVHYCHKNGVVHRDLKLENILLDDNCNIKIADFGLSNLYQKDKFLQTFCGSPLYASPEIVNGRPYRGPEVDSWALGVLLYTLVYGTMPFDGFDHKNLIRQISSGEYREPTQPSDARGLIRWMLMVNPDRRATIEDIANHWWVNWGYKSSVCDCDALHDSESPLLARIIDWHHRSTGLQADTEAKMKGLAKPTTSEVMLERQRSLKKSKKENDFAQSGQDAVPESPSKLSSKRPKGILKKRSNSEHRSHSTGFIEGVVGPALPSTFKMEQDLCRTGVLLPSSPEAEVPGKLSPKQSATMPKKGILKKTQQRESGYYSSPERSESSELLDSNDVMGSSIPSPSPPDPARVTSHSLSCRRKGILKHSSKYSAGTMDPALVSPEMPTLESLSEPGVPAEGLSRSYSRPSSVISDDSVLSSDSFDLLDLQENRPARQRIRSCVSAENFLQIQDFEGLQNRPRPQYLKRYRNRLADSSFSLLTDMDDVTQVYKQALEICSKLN
Method in brief: as §1

PKCε (h) = molecular target: T4, PKCε (h) (Homo sapiens, UniProt Q02156)
T4 construct: purchased Millipore
T4 sequence (Q02156 1-737): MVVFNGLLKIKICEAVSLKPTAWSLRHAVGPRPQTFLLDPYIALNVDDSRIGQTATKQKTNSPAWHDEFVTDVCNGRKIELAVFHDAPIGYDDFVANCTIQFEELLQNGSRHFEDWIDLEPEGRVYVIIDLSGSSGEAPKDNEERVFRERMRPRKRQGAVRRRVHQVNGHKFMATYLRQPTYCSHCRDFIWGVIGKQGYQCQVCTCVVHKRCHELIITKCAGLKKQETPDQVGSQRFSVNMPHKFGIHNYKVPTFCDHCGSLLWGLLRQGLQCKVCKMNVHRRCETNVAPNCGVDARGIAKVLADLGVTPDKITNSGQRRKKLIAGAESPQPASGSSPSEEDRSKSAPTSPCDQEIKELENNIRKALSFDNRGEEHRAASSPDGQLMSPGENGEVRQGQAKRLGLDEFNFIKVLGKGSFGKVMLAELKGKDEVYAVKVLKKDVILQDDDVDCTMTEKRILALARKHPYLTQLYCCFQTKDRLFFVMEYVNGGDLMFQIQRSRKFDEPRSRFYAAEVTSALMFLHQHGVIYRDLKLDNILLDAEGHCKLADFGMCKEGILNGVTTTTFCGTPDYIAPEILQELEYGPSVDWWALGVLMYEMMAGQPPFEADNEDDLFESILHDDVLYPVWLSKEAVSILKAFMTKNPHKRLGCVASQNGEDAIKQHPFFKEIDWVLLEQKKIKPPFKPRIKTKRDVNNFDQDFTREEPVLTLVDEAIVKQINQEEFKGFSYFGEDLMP
Method in brief: as §1

FGFR3 (h) = FGFR3 (h) (Homo sapiens, UniProt P22607)
FGFR3 (h), sequence (P22607 23-806): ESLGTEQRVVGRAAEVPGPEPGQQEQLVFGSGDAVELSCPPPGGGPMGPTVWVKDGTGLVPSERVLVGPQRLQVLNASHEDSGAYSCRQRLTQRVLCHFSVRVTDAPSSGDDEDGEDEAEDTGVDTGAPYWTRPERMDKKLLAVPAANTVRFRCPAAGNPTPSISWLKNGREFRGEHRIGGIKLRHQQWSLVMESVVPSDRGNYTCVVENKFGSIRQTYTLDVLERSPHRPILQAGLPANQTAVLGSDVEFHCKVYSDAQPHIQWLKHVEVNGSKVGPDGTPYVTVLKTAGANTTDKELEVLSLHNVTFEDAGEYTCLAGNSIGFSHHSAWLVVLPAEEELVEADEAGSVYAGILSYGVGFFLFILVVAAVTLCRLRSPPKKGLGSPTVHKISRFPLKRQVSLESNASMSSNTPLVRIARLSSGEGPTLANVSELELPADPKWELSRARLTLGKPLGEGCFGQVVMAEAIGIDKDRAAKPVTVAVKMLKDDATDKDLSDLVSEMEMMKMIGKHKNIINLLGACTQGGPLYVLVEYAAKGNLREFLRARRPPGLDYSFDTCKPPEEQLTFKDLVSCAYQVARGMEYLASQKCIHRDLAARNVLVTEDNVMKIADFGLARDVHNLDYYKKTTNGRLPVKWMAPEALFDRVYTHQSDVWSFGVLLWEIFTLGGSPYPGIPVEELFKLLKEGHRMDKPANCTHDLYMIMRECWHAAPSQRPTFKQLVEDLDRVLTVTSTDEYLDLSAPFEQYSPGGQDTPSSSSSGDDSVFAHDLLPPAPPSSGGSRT
Method in brief: as §1

Flt4 (h), sequence (P35916 25-1363): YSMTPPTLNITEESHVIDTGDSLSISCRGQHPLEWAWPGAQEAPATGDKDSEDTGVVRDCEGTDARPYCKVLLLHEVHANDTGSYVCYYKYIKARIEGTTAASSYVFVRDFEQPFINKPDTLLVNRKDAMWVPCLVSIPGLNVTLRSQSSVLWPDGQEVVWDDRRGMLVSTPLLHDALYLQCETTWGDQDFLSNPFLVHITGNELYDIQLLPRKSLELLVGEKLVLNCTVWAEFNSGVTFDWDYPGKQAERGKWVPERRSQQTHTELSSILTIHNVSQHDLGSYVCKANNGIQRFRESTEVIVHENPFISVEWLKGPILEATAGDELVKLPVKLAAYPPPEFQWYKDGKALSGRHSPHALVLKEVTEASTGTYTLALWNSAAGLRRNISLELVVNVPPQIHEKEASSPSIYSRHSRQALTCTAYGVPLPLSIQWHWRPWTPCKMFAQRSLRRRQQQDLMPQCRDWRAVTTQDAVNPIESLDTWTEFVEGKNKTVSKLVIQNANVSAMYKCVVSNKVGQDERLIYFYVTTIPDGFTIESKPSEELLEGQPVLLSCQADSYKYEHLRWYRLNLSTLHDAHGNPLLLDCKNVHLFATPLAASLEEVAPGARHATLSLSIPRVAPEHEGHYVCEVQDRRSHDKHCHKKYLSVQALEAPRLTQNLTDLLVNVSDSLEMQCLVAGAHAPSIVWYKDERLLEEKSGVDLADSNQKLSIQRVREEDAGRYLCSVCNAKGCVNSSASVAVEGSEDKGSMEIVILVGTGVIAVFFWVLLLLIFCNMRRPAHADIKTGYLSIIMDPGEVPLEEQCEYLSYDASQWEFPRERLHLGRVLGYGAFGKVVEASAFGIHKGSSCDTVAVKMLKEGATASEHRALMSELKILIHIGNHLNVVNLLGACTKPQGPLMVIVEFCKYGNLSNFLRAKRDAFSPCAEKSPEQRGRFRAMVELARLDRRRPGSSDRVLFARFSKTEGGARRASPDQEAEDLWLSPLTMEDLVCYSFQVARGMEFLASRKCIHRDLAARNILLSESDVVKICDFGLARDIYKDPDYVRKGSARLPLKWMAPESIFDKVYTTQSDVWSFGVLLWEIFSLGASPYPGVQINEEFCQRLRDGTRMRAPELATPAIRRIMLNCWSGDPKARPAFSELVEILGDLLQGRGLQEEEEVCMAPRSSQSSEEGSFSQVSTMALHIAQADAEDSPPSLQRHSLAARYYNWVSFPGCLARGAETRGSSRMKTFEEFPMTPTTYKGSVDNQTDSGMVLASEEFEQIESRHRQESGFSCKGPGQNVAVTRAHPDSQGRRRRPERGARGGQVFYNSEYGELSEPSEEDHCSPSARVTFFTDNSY

Row | Sequence | % activity (Flt4 (h)) [%] | % activity (Fms (h)) [%] | % activity (TAO1 (h)) [%] | % activity (IGF-1R (h), activated) [%] | % activity (EphA5 (h)) [%] | % activity (ARK5 (h)) [%] | % activity (PKCε (h)) [%] | % activity (FGFR3 (h)) [%]
1 | FAKLAARLYRKALARQLGVAA [MMI-0300] | 83 | 45 | 82 | 80 | 18 | 78 | 79 | –
2 | HRRIKAWLKKIKALARQLGVAA (Mammalian) [MMI-0500] | 73 | 14 | 24 | 45 | 42 | 20 | 23 | 10
3 | KAFAKLAARLYRKALARQLGVAA [MMI-0400] | 89 | 37 | 73 | 77 | 24 | 69 | 59 | 0
4 | YARAAARQARAKALNRQLGVA (Mammalian) [MMI-0200] | – | 92 | – | 94 | 123 | 93 | 98 | 208
